# Data reported in US6399352B1, “Plant porphobilinogen synthase and fusion protein thereof” (Paradigm Genetics, Inc., priority 1999, dated 2002).
# Test: Enzyme activity of plant thioredoxin-porphobilinogen synthase: PBG formation from ALA (EC 4.2.1.24)
# Format: biochemical
# Details: 37° C., 1 hour, Tricine buffer pH 7.9, 2.5 mM ALA, 5 mM MgCl2, 1.25 μg purified recombinant protein; Ehrlich's reagent, OD 555 nm
# Experimental: Enzyme activity is tested in accordance with EC 4.2.1.24 using the following assay principle: [drawing 1] The enzyme activity of plant thioredoxin-porphobilinogen synthase (T-PPS) is measured as porphobilinogen (PBG) formation from δ-aminolevulinic acid (Aminolevulinate or ALA). A typical reaction is as follows: the reaction is carried out at 37° C. for 1 hour in Tricine buffer pH 7.9 or other suitable biochemical buffer, 2.5 mM ALA, 5 mM MgCl2 and 1.25 μg of purified recombinant protein from E. coli expression system in a final assay volume of 100 μl. PBG is quantified spectrophotometrically after reaction with the 100 μl Ehrlich's reagent solution. Optical density is determined after 60 minutes at 555 nm.
substance,measurement,value
"plant thioredoxin-porphobilinogen synthase: fusion protein of thioredoxin and tomato plant porphobilinogen synthase, expressed in E. coli (SEQ ID NO: 2)",enzyme activity (conversion of ALA to PBG),active
